Source: US20220259289A1 (Janssen / Centocor, published 2022)

Legend:
human serum albumin = biological target: T1, human serum albumin (human, UniProt P02768 25-609); assay: ELISA, negative control HSA
T1 construct: Negative control of the ELISA; also called HSA
Outline: (§1)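 Biotinylated CD137-Fc, an unrelated Fc-fusion protein or human serum albumin captured 1 h on streptavidin plates blocked in Starting Block T20; diluted bacterial lysate applied 1 h. Bound binders detected with HRP-conjugated anti-Centyrin antibody (PAB25) for 1 h, then POD substrate read-out.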

[1] = biological target: unrelated Fc-fused recombinant protein; assay: ELISA, negative control Fc protein
[2] = biological target: T2, recombinant human CD137-Fc-IgG1 (human, UniProt Q07011 24-186, limits assumed); assay: SPR (Biacore T100), CD137-Fc captured by anti human IgG, 1:1 model
T2 construct: Captured by anti human IgG on the Biacore chip
Description: For selected FN3 domains, binding to recombinant CD137-Fc was evaluated using surface plasmon resonance (Biacore T100). For each cycle approximately 500 RU of recombinant human CD137-Fc-IgG1 was captured via an anti human IgG immobilized on the surface of a CMS chip. Once CD137-Fc protein was captured, increasing concentrations of Centyrin candidates were injected for 120 s and dissociation was then analyzed for 240 s. A flow cell immobilized with just the anti human IgG1 antibody served as reference flow cell. Kd values were subsequently extrapolated using a 1:1 kinetic binding model (BiaEvaluation software).

[3] = biological target: T3, recombinant biotinylated CD137 protein (Fc-fusion protein, R&D Systems 838-4B) (human, UniProt Q07011 24-186, biotinylated, sites not stated); assay: ELISA, lysate on biotinylated CD137-Fc
T3 construct: Bought Fc fusion; also called CD137-Fc
Outline: as §1

[4] = biological target: extracellular domain of human CD137 on the surface of CHO-K1 cells (human, UniProt Q07011 24-186); assay: flow cytometry on CHO-K1 cells with human CD137 ECD
Description: Cell surface binding was analyzed via flow cytometry. Cenyrins were prepared at a maximal concentration of 500 nM in the presence of 125 nM anti His-mIgG1 antibody and then serially diluted in PBS/1% FCS buffer. Samples were then applied to approx 100 000 CHO-Kl cells expressing the extracellular domain of human CD137 on their surface. Unbound Centyrin/Antibody complexes were washed away and bound FN3 domains were detected by the addition of goat anti mouse-FITC labeled antibody. Samples were then aquired by flow cytometry. Subsequently, Mean flurescence intensity was plotted against the log Centyrin concentration and EC50 values were calculated by nonlinear regression using GraphPad Prism.

[5] = biological target: human serum albumin (human) (UniProt P02768); assay: ELISA, negative control HSA
human serum albumin (human), sequence (P02768 25-609 limits assumed): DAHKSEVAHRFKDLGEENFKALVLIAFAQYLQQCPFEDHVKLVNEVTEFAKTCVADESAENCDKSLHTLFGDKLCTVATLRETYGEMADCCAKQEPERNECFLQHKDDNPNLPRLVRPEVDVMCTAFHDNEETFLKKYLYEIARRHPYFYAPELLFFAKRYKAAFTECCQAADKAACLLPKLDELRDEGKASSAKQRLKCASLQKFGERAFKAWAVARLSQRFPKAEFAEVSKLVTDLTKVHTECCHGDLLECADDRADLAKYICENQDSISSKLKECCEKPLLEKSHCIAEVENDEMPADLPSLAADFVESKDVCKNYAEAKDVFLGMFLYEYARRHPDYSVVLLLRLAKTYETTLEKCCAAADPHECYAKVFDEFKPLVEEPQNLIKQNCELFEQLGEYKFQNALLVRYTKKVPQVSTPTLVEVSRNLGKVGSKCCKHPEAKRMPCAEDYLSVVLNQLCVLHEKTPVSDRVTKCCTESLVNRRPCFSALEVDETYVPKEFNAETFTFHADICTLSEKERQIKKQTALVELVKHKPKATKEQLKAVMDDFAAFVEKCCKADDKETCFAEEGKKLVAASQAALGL

[6] = biological target: human serum albumin (human) (UniProt P02768); assay: ELISA, bacterial lysate on plate-bound antigen, luminescence
[7] = biological target: unrelated Fc-fused recombinant protein (negative control); assay: as above
[8] = biological target: T4, recombinant biotinylated human CD137 protein (Fc-fusion protein, R&D Systems 838-4B) (human, UniProt Q07011 24-186, biotinylated (site not stated)); assay: as above
T4 construct: Bought Fc fusion; The ELISA used the same antigen as the panning; also called CD137-Fc; biotinylated CD137; not shown: Fc part of the bought fusion protein
Outline: as §1

T1 sequence (P02768 25-609 limits assumed): as above

| Binder | ELISA HSA (RLU) (human serum albumin) | ELISA Fc Control (RLU) [1] [RLU] | Kd [2] [nM] | ELISA CD137 (RLU) [3] [RLU] | EC50 [4] [nM] | ELISA HSA (RLU) [5] [RLU] | ELISA HSA (RLU) [6] [RLU] | ELISA Fc Control (RLU) [7] [RLU] | ELISA CD137-Fc (RLU) [8] [RLU] |
| --- | --- | --- | --- | --- | --- | --- | --- | --- | --- |
| ISOP193HR9P1B11 (designed binder, not shown: small tags and cut ends) LPAPKNLVVSRVTEDSARLSWTAPDAAFDSFEIYYFELRLGGEAIVLTVPGSERSYDLTGLKPGTEYLVTIYGVKGCGYSDPLSAIFTT |  | 15000 |  | 1.66e+07 |  | 4080 |  |  |  |
| ISOP193HR9P1E2 (designed binder, not shown: small tags and cut ends) LPAPKNLVVSRVTEDSARLSWTAPDAAFDSFEIYYLEWCSGGEAIVLTVPGSERSYDLTGLKPGTEYLVTIYGVKGCAASDPLSAIFTT |  | 13100 |  | 9.02e+06 |  | 3840 |  |  |  |
| ISOP193HR9P1E6 (designed binder, not shown: small tags and cut ends) LPAPKNLVVSRVTEDSARLSWTAPDAAFDSFEIYYAEFGYYGEAIVLTVPGSERSYDLTGLKPGTEYLVTIYGVKGCAASDPLSAIFTT |  | 20100 |  | 1.13e+07 |  | 3040 |  |  |  |
| ISOP193ER9P1A4 (designed binder, not shown: small tags and cut ends) LPAPKNLIVSRVTEDSARLSWTAPDAAFDSFEIYYKELRAEGEAIVLTVPGSERSYDLTGLKPGTEYLVTIYGVKGGSVSIPLSAIFTT | 480 | 960 | 117 | 9.81e+06 | 27.1 |  |  |  |  |
| ISOP193HR9P1C7 (designed binder, not shown: small tags and cut ends) LPAPKNLVVSRVTEDSARLSWTAPDAAFDSFEIYYLELDSDGEAIVLTVPGSERSYDLTGLKPGTEYIVTIYGVKVCTGSRPLSAIFTT |  | 71400 |  | 3.44e+06 |  | 10000 |  |  |  |
| ISOP193ER9P1E2 (designed binder, not shown: small tags and cut ends) LPAPKNLVVSRVTEDSARLSWTAPDAAFDSFDIYYFEHPVGGEAIVLTVPGSERSYDLTGLKPGTEYLVTIYGVKGGFWSQPLSAIFTT | 560 | 1040 | 10.9 | 1.57e+07 | 15.3 |  |  |  |  |
| ISOP193ER9P1G2 (designed binder, not shown: small tags and cut ends) LPAPKNLVVSRVTEDSARLSWTAPDAAFDSFDIYYFEQPVGGEAIVLTVPGSERSYDLTGLKPGTEYLVTIYGVKGGYLSMPLSAIFTT | 720 | 1680 | 65.6 | 7.19e+06 | 22.9 |  |  |  |  |
| ISOP193ER9P1G9 (designed binder, not shown: small tags and cut ends) LPAPKNLVVSRVTEDSARLSWTAPDAAFDSFDIYYFEHPVGGEAIVLTVPGSERSYDLTGLKPGTEYLVTIYGVKGGNGSSPLSAIFTT | 400 | 1280 | 59.9 | 1.29e+07 | 15.3 |  |  |  |  |
| ISOP120HR5P1E2 (designed binder, not shown: small tags and cut ends, FN3 domain (Centyrin); tested as E. coli lysate) LPAPKNLVVSHVTEDSARLSWTAPDAAFDSFEIYYLEGGRGEAIVLTVPGSERSYDLTVLKPGTEYLGTIYGVKCGWASNPLSAIFTT |  |  |  |  |  |  | 2880 | 720 | 1.32e+06 |

Next, values leading:

| ELISA HSA (RLU) (human serum albumin) | ELISA Fc Control (RLU) [1] [RLU] | Kd [2] [nM] | ELISA CD137 (RLU) [3] [RLU] | EC50 [4] [nM] | ELISA HSA (RLU) [5] [RLU] | ELISA HSA (RLU) [6] [RLU] | ELISA Fc Control (RLU) [7] [RLU] | ELISA CD137-Fc (RLU) [8] [RLU] | Binder |
| --- | --- | --- | --- | --- | --- | --- | --- | --- | --- |
| 880 | 3040 | 8.3 | 1.42e+07 | 10.2 |  |  |  |  | ISOP193ER9P1A3 (designed binder, not shown: small tags and cut ends) LPAPKNLVVSRVTEDSARLSWTTPDAAFDSFDIYYFEHPVGGEAIVLTVPGSERSYDLTGLKPGTEYLVTIYGVKGGYLSKPLSAIFTT |
| 560 | 1200 | 10.6 | 1.5e+07 | 12.6 |  |  |  |  | ISOP193ER9P1E1 (designed binder, not shown: small tags and cut ends) LPAPKNLVVSRVTEDSARLSWTAPDAAFDSFDIYYFEHPVGGEAIVLTVPGSERSYDLTGLKPGTEYLVTIYGVKGGSVSIPLSAIFTT |
|  | 10900 |  | 6.27e+06 |  | 2640 |  |  |  | ISOP193HR9P1D8 (designed binder, not shown: small tags and cut ends) LPAPKNLVVSRVTEDSARLSWTAPDAAFDSFDIYYLESGRDGEAIVLTVPGSERSYDLTGLKPGTEYLVSIYGVKGCGYSDPLSAIFTT |
| 560 | 2480 | 108 | 8.87e+06 | 31 |  |  |  |  | ISOP193ER9P1C10 (designed binder, not shown: small tags and cut ends) LLAPKNLVVSRVTEDSARLSWIAPDAAFDSFEIYYKELRAEGEAIVLTVPGSERSYDLTGLKPGTEYLVTIYGVKGGSVSIPLSAIFTT |
|  | 48700 |  | 1.42e+07 |  | 6240 |  |  |  | ISOP193HR9P1D11 (designed binder, not shown: small tags and cut ends) LPAPKNLVVSRVTEDSARLSWTAPDAAFDSFDIYYYELRLGGEAIVLTVPGSERSYDLTGLKPGTEYLVTIYGVKVCEQSYPLSAIFTT |
| 560 | 880 | 25.1 | 1.43e+07 | 14.1 |  |  |  |  | ISOP193ER9P1C9 (designed binder, not shown: small tags and cut ends) LPAPKNLVVSRVTEDSARLSWTAPDAAFDSFDIYYFEHPVGGEAIVLTVPGSERSYDLTGLKPGTEYLVTIYGVKGGELSKPLSAISTT |
|  | 13000 |  | 1.64e+07 |  | 2240 |  |  |  | ISOP193HR9P1B7 (designed binder, not shown: small tags and cut ends) LPAPKNLVVSRVTEDSARLSWTAPDAAFDSFEIYYFELRLGGEAIVLTVPGSERSYDLTGLKPGTEYLVSIYGVKGCGYSDPLSAIFTT |
| 320 | 960 | 13.1 | 1.55e+07 | 18.9 |  |  |  |  | ISOP193ER9P1C4 (designed binder, not shown: small tags and cut ends) LPAPKNLVVSRVTEDSARLSWTAPDAAFDSFDIYYFEHPVGGEAIVLTVPGSERSYDLTGLKPGTEYLVTIYGVKGGIWSVPLSAIFTT |
| 480 | 1120 | 9.55 | 1.6e+07 | 12.9 |  |  |  |  | ISOP193ER9P1D4 (designed binder, not shown: small tags and cut ends) LPAPKNLVVSRVTEDSARLSWTAPDAAFDSFDIYYFEHPVGGEAIVLTVPGSERSYDLTGLKPGTEYLVTIYGVKGGTYSPPLSAIFTT |
|  | 28300 |  | 1.66e+07 |  | 4240 |  |  |  | ISOP193HR9P1A11 (designed binder, not shown: small tags and cut ends) LPAPKNLVVSRVTEDSARLSWTAPDAAFDSFEIYYLEGGRGEAIVLTVPGSERSYDLTGLKPGTEYLVTIYGVKCGWASNPLSAIFTT |
